Experimental data: patent US10746644B2, “Vitro method and apparatus for analysing the behaviour of substances in simulated physiological environment” (Hoffmann-La Roche Inc., priority 2014, dated 2020)

Assay: Effect of dialysis membrane MWCO on diffusion of BSA and IgG from VH-compartment to FT-compartment
Type: in vitro ADME, porcine
Settings: DM-1 50 kDa MWCO compared with DM-1 100 kDa MWCO; DM-2 100 kDa; HA gel 0.6% w/v
Procedure: Diffusion of bovine serum albumin (BSA) and Immunoglobulin G (IgG) in the flow direction from VH-compartment to FT-compartment was investigated by varying MWCO of the dialysis membrane. The experiment was performed similarly as described in example 1 with minor modifications. Two different MWCO dialysis membranes were used as DM-1, with MWCO 50 kDa and 100 kDa, whereas the MWCO of DM-2 was kept constant at 100 kDa. VH-compartment was filled with 3.5 mL of sterile porcine VH and GM-compartment was filled with about 3 mL of sterile HA gel (0.6% w/v). FT-compartment was filled with sterile PBS.

For “FITC-BSA: FITC-labelled bovine serum albumin (66 kDa), globular macromolecule”, which “diffusion into FT compartment” value is on record?
Its value is “restrained the diffusion of both IgG and BSA significantly”.
